According to patent US20090214535A1 (Chugai, published 2009):
Like-named read-outs stand apart in the source and are kept apart here.

How the values were obtained:
Assay in all cases: cell-based or functional assay
[1] = target: Mpl on the BaF3 cells of FIG. 42 (human or monkey not stated)
[2] = target: T1, human Mpl (on BaF3-human Mpl cells) (human, UniProt P40238 26-635)
T1 sequence (looked up): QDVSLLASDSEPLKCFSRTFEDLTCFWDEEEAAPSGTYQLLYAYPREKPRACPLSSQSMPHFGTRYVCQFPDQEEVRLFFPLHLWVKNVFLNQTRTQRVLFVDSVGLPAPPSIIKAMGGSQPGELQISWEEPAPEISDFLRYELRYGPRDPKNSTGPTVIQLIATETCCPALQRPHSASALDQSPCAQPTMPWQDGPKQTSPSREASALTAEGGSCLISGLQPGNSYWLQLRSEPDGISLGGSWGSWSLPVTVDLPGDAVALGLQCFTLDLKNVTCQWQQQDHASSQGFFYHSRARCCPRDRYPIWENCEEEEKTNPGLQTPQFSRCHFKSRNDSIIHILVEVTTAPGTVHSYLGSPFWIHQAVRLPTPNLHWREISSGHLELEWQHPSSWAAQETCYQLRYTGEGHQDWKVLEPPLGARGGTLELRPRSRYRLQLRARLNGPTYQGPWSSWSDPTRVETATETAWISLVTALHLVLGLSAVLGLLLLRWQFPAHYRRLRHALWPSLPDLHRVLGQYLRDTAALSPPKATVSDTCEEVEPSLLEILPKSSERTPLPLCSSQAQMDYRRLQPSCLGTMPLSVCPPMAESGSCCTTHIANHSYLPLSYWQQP

[3] = target: monkey Mpl (on BaF3-monkey Mpl cells) (monkey)
[4] = target: T1, human Mpl (on BaF3-human Mpl cells); remark: listed apart in the source
[5] = target: monkey Mpl (on BaF3-monkey Mpl cells) (monkey); remark: listed apart in the source
[6] = target: T1, human Mpl (on BaF3-human Mpl cells); remark: listed apart in the source
[7] = target: monkey Mpl (on BaF3-monkey Mpl cells) (monkey); remark: listed apart in the source

B1: VB22B sc(Fv)2 peak 2 (single chain diabody-type conformational isomer) (scFv)
chain: QVQLQQSGPELVKPGASVKISCKASGYAFTNSWMNWVKQRPGKGLEWIGRIYPGDGETIYNGKFRVKATLTADKSSSTAYMDISSLTSEDSAVYFCARGYDDYSFAYWGQGTLVTVSAGGGGSGGGGSGGGGSDIVMTQAAPSIPVTPGESVSISCRSSKSLLHSNGNTYLYWFLQRPGQSPQLLIYRMSNLASGVPDRFSGSGSGTAFTLRISRVEAEDVGVYYCMQHIEYPFTFGSGTKLEIKGGGGSGGGGSGGGGSQVQLQQSGPELVKPGASVKISCKASGYAFTNSWMNWVKQRPGKGLEWIGRIYPGDGETIYNGKFRVKATLTADKSSSTAYMDISSLTSEDSAVYFCARGYDDYSFAYWGQGTLVTVSAGGGGSGGGGSGGGGSDIVMTQAAPSIPVTPGESVSISCRSSKSLLHSNGNTYLYWFLQRPGQSPQLLIYRMSNLASGVPDRFSGSGSGTAFTLRISRVEAEDVGVYYCMQHIEYPFTFGSGTKLEIK
In the case of B1, the “EC50 (read off the curve)” value [1] is reported as about 0.6 ng/mL, the “EC50 (read off the curve) [A) BaF-human Mpl]” value [2] is reported as about 0.008 nM and the “EC50 (read off the curve) [B) BaF-monkey Mpl]” value [3] is reported as about 0.02 nM.

B2: humanized anti-human Mpl antibody hVB22B u2-wz4 sc(Fv)2 (bulk, before separation of the conformational isomers) (scFv)
chain: QVQLVQSGPEVKKPGASVKVSCKASGYTFTNSWMNWVRQRPGKGLEWIGRIYPGDGETIYNGKFRVRVTITADESTSTAYMQLSSLRSEDTAVYYCARGYDDYSFAYWGQGTTVTVSSGGGGSGGGGSGGGGSDIVMTQSPLSLPVTPGEPASISCRSSKSLLHSNGNTYLYWFLQKPGQSPQLLIYRMSNLASGVPDRFSGSGSGTDFTLKISRVEAEDVGVYYCMQHIEYPFTFGQGTKLEIKGGGGSGGGGSGGGGSQVQLVQSGPEVKKPGASVKVSCKASGYTFTNSWMNWVRQRPGKGLEWIGRIYPGDGETIYNGKFRVRVTITADESTSTAYMQLSSLRSEDTAVYYCARGYDDYSFAYWGQGTTVTVSSGGGGSGGGGSGGGGSDIVMTQSPLSLPVTPGEPASISCRSSKSLLHSNGNTYLYWFLQKPGQSPQLLIYRMSNLASGVPDRFSGSGSGTDFTLKISRVEAEDVGVYYCMQHIEYPFTFGQGTKLEIK
In the case of B2, the “EC50 (read off the curve) [A) BaF-human Mpl]” value [4] is reported as about 0.06 nM, the “EC50 (read off the curve) [B) BaF-monkey Mpl]” value [5] is reported as about 0.02 nM and the “EC50 (read off the curve) [A) BaF-human Mpl]” value [6] is reported as about 0.04 nM. For the same binder, the “EC50 (read off the curve) [B) BaF-monkey Mpl]” value [7] was about 0.04 nM.

B3: hVB22B u2-wz4 sc(Fv)2 peak 2 (single chain diabody-type conformational isomer) (scFv)
chain: QVQLVQSGPEVKKPGASVKVSCKASGYTFTNSWMNWVRQRPGKGLEWIGRIYPGDGETIYNGKFRVRVTITADESTSTAYMQLSSLRSEDTAVYYCARGYDDYSFAYWGQGTTVTVSSGGGGSGGGGSGGGGSDIVMTQSPLSLPVTPGEPASISCRSSKSLLHSNGNTYLYWFLQKPGQSPQLLIYRMSNLASGVPDRFSGSGSGTDFTLKISRVEAEDVGVYYCMQHIEYPFTFGQGTKLEIKGGGGSGGGGSGGGGSQVQLVQSGPEVKKPGASVKVSCKASGYTFTNSWMNWVRQRPGKGLEWIGRIYPGDGETIYNGKFRVRVTITADESTSTAYMQLSSLRSEDTAVYYCARGYDDYSFAYWGQGTTVTVSSGGGGSGGGGSGGGGSDIVMTQSPLSLPVTPGEPASISCRSSKSLLHSNGNTYLYWFLQKPGQSPQLLIYRMSNLASGVPDRFSGSGSGTDFTLKISRVEAEDVGVYYCMQHIEYPFTFGQGTKLEIK
With B3 the “EC50 (read off the curve) [A) BaF-human Mpl]” value [4] was about 0.05 nM, the “EC50 (read off the curve) [B) BaF-monkey Mpl]” value [5] was about 0.02 nM and the “EC50 (read off the curve) [A) BaF-human Mpl]” value [6] was about 0.04 nM. The “EC50 (read off the curve) [B) BaF-monkey Mpl]” value [7] was about 0.03 nM.

B4: mouse anti-human Mpl antibody mVB22B sc(Fv)2 (before separation of the conformational isomers) (scFv)
chain: QVQLQQSGPELVKPGASVKISCKASGYAFTNSWMNWVKQRPGKGLEWIGRIYPGDGETIYNGKFRVKATLTADKSSSTAYMDISSLTSEDSAVYFCARGYDDYSFAYWGQGTLVTVSAGGGGSGGGGSGGGGSDIVMTQAAPSIPVTPGESVSISCRSSKSLLHSNGNTYLYWFLQRPGQSPQLLIYRMSNLASGVPDRFSGSGSGTAFTLRISRVEAEDVGVYYCMQHIEYPFTFGSGTKLEIKGGGGSGGGGSGGGGSQVQLQQSGPELVKPGASVKISCKASGYAFTNSWMNWVKQRPGKGLEWIGRIYPGDGETIYNGKFRVKATLTADKSSSTAYMDISSLTSEDSAVYFCARGYDDYSFAYWGQGTLVTVSAGGGGSGGGGSGGGGSDIVMTQAAPSIPVTPGESVSISCRSSKSLLHSNGNTYLYWFLQRPGQSPQLLIYRMSNLASGVPDRFSGSGSGTAFTLRISRVEAEDVGVYYCMQHIEYPFTFGSGTKLEIK
For B4, the “EC50 (read off the curve) [A) BaF-human Mpl]” value [2] was about 0.01 nM and the “EC50 (read off the curve) [B) BaF-monkey Mpl]” value [3] was about 0.03 nM.

B5: hVB22B u2-wz4 (v1) sc(Fv)2 (scFv)
chain: QVQLVQSGPEVKKPGASVKVSCKASGYTFTNSWMNWVRERPGKGLEWIGRIYPGDGETIYNGKFRVRVTITADESTSTAYMQLSSLRSEDTAVYYCARGYDDYSFAYWGQGTTVTVSSGGGGSGGGGSGGGGSDIVMTQSPLSLPVTPGEPASISCRSSKSLLHSNGNTYLYWFLEKPGQSPQLLIYRMSNLASGVPDRFSGSGSGTDFTLKISRVEAEDVGVYYCMQHIEYPFTFGQGTKLEIKGGGGSGGGGSGGGGSQVQLVQSGPEVKKPGASVKVSCKASGYTFTNSWMNWVRKRPGKGLEWIGRIYPGDGETIYNGKFRVRVTITADESTSTAYMQLSSLRSEDTAVYYCARGYDDYSFAYWGQGTTVTVSSGGGGSGGGGSGGGGSDIVMTQSPLSLPVTPGEPASISCRSSKSLLHSNGNTYLYWFLKKPGQSPQLLIYRMSNLASGVPDRFSGSGSGTDFTLKISRVEAEDVGVYYCMQHIEYPFTFGQGTKLEIK
With B5 the “EC50 (read off the curve) [A) BaF-human Mpl]” value [4] was about 0.04 nM and the “EC50 (read off the curve) [B) BaF-monkey Mpl]” value [5] was about 0.04 nM.

B6: hVB22B u2-wz4 (v3) sc(Fv)2 (scFv)
chain: QVQLVQSGPEVKKPGASVKVSCKASGYTFTNSWMNWVRERPGKGLEWIGRIYPGDGETIYNGKFRVRVTITADESTSTAYMQLSSLRSEDTAVYYCARGYDDYSFAYWGQGTTVTVSSGGGGSGGGGSGGGGSDIVMTQSPLSLPVTPGEPASISCRSSKSLLHSNGNTYLYWFLKKPGQSPQLLIYRMSNLASGVPDRFSGSGSGTDFTLKISRVEAEDVGVYYCMQHIEYPFTFGQGTKLEIKGGGGSGGGGSGGGGSQVQLVQSGPEVKKPGASVKVSCKASGYTFTNSWMNWVRKRPGKGLEWIGRIYPGDGETIYNGKFRVRVTITADESTSTAYMQLSSLRSEDTAVYYCARGYDDYSFAYWGQGTTVTVSSGGGGSGGGGSGGGGSDIVMTQSPLSLPVTPGEPASISCRSSKSLLHSNGNTYLYWFLEKPGQSPQLLIYRMSNLASGVPDRFSGSGSGTDFTLKISRVEAEDVGVYYCMQHIEYPFTFGQGTKLEIK
In the case of B6, the “EC50 (read off the curve) [A) BaF-human Mpl]” value [4] is reported as about 0.1 nM.
